Results taken from US20090137002A1 (published 2009).

B1: MOR03639 Fab (Fab, V domains shown)
VH: QVQLVESGGGLVQPGGSLRLSCAASGFTFSNYYLHWVRQAPGKGLEWVSGISYSGSSTYYADSVKGRFTISRDNSKNTLYLQMNSLRAEDTAVYYCARFYQRRQIPHGYDVWGQGTLVTVSS
VL: DIELTQPPSVSVAPGQTARISCSGDNIGDYYVHWYQQKPGQAPVLVIYRDSNRPSGIPERFSGSNSGNTATLTISGTQAEDEADYYCGSYDMPFGGTVFGGGTKLTVLG
notes: Monomeric HuCAL Fab (VH3, lambda3), purified, MH-tagged
B2: MOR03640 Fab (Fab, V domains shown)
VH: QVQLVESGGGLVQPGGSLRLSCAASGFTFNNSWMSWVRQAPGKGLEWVSNITSSSSMTHYADSVKGRFTISRDNSKNTLYLQMNSLRAEDTAVYYCARKGMSFYNNKYAKSMFDLWGQGTLVTVSS
VL: DIELTQPPSVSVAPGQTARISCSGDNLGKKYVHWYQQKPGQAPVLVIYYDSKRPSGIPERFSGSNSGNTATLTISGTQAEDEADYYCSAWTTTMMHIVFGGGTKLTVLG
notes: Monomeric HuCAL Fab, purified, MH-tagged
B3: MOR03641 Fab (Fab, V domains shown)
VH: QVQLVQSGAEVKKPGSSVKVSCKASGGTFSTYAISWVRQAPGQGLEWMGRIIPIFGTANYAQKFQGRVTITADESTSTAYMELSSLRSEDTAVYYCARSSYTILTTYYNYNAMDNWGQGTLVTVSS
VL: DIQMTQSPSSLSASVGDRVTITCRASQNINNFLNWYQQKPGKAPKLLIYGSSILQSGVPSRFSGSGSGTDFTLTISSLQPEDFAVYYCHQVSDTSDTFGQGTKVEIKR
notes: Monomeric HuCAL Fab (VH1A, kappa1), purified, MH-tagged; also called 3541 [sic]

What was measured:
[1] = molecular target: T1, recombinant mouse EphA4-Fc fusion protein (mouse, UniProt Q03137 20-547, limits assumed); assay: ELISA on coated receptor
T1 construct: also called mEphA4; not shown: Fc part, not described
Experimental: (§1) A 96-well plate was coated with recombinant mEphB1, -2, -3, -4, -6, mEphA4 and hEphB4 in PBS o/n at 4° C. (5 μg/mL; 100 μL/well). The next day, the antigen was discarded and the plate blocked with 3% BSA/PBS (300 μl/well) for 2 hrs at room temperature (RT). Blocking solution was discarded and anti-EphB4 Fabs were added to the wells at a concentration of 20 μg/mL in 1% BSA/PBS and incubated for 1 hr at RT. Fabs were discarded and the plate was washed 3× with PBS. Anti-human F(ab′)₂—HRP was added at a concentration recommended by the manufacturer in 1% BSA/PBS and incubated for 1 hr at RT. The plate was washed 3× with PBS and 100 μL/well chemifluorescent substrate was added. After development, fluorescence was measured in a fluorescence reader.

[2] = molecular target: T2, recombinant mouse EphB2 (mouse, UniProt P54763 19-540, limits assumed); assay: ELISA on coated receptor
T2 construct: also called mEphB2
T2 sequence (looked up): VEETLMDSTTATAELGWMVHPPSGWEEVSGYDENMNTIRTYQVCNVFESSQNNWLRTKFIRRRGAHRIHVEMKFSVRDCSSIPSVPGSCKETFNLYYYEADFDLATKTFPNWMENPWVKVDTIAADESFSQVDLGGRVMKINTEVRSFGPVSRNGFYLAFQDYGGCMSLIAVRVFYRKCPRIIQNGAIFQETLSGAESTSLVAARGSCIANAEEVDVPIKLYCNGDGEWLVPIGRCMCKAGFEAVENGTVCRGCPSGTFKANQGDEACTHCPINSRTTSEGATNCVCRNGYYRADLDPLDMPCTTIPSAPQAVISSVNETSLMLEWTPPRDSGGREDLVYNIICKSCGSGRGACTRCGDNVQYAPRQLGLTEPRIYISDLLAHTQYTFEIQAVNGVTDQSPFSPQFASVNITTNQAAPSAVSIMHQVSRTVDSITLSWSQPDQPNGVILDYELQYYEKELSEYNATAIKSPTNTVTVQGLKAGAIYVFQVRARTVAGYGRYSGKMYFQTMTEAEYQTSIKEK
Experimental: as §1

[3] = molecular target: T3, rat EphB1 (rat, UniProt P09759 18-538, limits assumed); assay: ELISA on coated receptor
T3 sequence (looked up): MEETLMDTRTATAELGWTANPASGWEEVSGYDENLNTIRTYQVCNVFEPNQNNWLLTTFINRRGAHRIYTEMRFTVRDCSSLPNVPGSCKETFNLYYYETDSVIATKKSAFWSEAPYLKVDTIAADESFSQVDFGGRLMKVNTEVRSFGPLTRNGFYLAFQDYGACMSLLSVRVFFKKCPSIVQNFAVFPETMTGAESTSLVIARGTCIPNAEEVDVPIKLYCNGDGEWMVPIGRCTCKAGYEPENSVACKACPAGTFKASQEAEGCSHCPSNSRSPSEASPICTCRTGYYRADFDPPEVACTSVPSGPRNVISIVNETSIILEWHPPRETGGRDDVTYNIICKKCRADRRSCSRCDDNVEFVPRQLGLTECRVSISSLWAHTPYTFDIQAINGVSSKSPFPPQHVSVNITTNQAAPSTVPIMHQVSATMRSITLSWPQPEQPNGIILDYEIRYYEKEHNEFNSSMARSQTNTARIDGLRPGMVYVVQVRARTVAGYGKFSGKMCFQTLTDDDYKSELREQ

[4] = molecular target: T3, rat EphB1; assay: ELISA, well L15 [part 2]
[5] = molecular target: T4, recombinant human EphB4-Fc fusion protein (human, UniProt P54760 16-539); assay: SET (MSD), solution equilibrium titration
T4 construct: extracellular domain; also called hEphB4; hu EphB4-Fc
T4 sequence (looked up): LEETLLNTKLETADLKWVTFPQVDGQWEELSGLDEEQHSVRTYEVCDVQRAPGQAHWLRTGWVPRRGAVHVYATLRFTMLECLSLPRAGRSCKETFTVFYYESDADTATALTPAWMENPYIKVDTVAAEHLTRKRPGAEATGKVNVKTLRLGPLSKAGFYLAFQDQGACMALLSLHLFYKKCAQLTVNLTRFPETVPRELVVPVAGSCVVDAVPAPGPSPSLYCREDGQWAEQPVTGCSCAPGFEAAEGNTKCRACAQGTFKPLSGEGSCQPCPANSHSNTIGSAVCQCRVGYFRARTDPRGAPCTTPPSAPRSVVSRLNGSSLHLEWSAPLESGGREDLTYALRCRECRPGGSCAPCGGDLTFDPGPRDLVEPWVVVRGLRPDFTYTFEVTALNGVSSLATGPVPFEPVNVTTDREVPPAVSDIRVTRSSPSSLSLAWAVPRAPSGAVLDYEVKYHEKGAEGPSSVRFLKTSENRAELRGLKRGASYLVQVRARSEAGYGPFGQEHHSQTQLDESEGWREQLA
Experimental: Two independent measurements were performed on human and murine EphB4-Fc.

T1 sequence (Q03137 20-547 limits assumed): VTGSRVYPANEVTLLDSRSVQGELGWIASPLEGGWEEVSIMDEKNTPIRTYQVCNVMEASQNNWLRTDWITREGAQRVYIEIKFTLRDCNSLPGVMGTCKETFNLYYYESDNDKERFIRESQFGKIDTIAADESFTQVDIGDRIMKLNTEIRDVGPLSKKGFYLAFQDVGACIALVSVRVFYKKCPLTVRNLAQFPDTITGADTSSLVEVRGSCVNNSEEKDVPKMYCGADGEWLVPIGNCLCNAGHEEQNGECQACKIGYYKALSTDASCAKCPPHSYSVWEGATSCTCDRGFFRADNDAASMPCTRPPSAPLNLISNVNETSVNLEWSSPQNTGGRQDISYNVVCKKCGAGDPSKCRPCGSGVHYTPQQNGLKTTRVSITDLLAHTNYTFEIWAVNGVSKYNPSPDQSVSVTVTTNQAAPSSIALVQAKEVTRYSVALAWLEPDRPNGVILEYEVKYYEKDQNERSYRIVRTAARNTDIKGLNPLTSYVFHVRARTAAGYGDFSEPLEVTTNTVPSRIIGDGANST

| Binder | binding result [1] | binding result [2] | binding result [3] | binding result [4] | Kd [5] [nM] |
| --- | --- | --- | --- | --- | --- |
| B1 | no binding (tested: 20 µg/mL) | no binding (tested: 20 µg/mL) | no binding (tested: 20 µg/mL) | – | – |
| B2 | – | – | – | no binding | 1.05 |
| B3 | no binding (tested: 20 µg/mL) | no binding (tested: 20 µg/mL) | no binding (tested: 20 µg/mL) | – | > 5 |
